Target: T1, FcεRII (CD23, low affinity IgE receptor) (human, UniProt P06734 1-321)
T1 construct: whole, on cells
T1 sequence (looked up): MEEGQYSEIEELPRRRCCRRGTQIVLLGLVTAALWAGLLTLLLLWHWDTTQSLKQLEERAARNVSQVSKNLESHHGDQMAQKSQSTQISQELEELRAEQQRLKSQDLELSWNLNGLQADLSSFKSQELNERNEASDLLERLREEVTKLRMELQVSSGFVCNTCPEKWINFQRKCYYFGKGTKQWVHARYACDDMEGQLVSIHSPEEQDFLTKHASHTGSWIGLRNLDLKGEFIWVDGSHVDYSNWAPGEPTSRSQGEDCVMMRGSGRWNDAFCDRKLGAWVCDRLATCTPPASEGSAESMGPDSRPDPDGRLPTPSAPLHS
Assay: flow cytometry on human primary monocytes and U937 cells
Source text: FIG. 3: Flow cytometric histograms showing HMW-MAA-IgE binding. A: Binding of chimaeric IgE to A375 melanoma tumour cells (left) but not to melanocytes (right). B: Binding of IgE to U937 monocytic cells (left) and to primary […] (right). Antibody binding was detected using a goat anti-human IgE-FITC antibody. C: Flow cytometric histograms showing HMW-MAA-IgG binding to A375 melanoma tumour cells (left) and U937 monocytic cells (right). Antibody binding was detected using a goat anti-human IgG-FITC antibody.
The interactions of anti-HMW-MAA antibodies with A375 melanoma tumour cells were analysed by flow cytometry and immunofluoresence. […] The IgE antibody also bound to FcεR-expressing human primary monocytes and cells of the monocytic cell line U937, which also express both IgE receptors, FcεRI and FcεRII at low densities (FIG. 3). The IgG1 antibody bound to the surface of A375 melanoma cells and U937 monocytic cells (FIG. 3C). […] Therefore, both chimaeric antibodies of known specificity could be engineered that recognised the expected tumour target and immune effector cells.

binding result: binds
B1: chimeric anti-HMW-MAA IgE antibody (antibody)
heavy: QVKLQQSGGGLVQPGGSMKLSCVVSGFTFSNYWMNWVRQSPEKGLEWIAEIRLKSNNFGRYYAESVKGRFTISRDDSKSSAYLQMINLRAEDTGIYYCTSYGNYVGHYFDHWGQGTTVTVSSASTQSPSVFPLTRCCKNIPSNATSVTLGCLATGYFPEPVMVTWDTGSLNGTTMTLPATTLTLSGHYATISLLTVSGAWAKQMFTCRVAHTPSSTDWVDNKTFSVCSRDFTPPTVKILQSSCDGGGHFPPTIQLLCLVSGYTPGTINITWLEDGQVMDVDLSTASTTQEGELASTQSELTLSQKHWLSDRTYTCQVTYQGHTFEDSTKKCADSNPRGVSAYLSRPSPFDLFIRKSPTITCLVVDLAPSKGTVNLTWSRASGKPVNHSTRKEEKQRNGTLTVTSTLPVGTRDWIEGETYQCRVTHPHLPRALMRSTTKTSGPRAAPEVYAFATPEWPGSRDKRTLACLIQNFMPEDISVQWLHNEVQLPDARHSTTQPRKTKGSGFFVFSRLEVTRAEWEQKDEFICRAVHEAASPSQTVQRAVSVNPGK
light: DIELTQSPKFMSTSVGDRVSVTCKASQNVDTNVAWYQQKPGQSPEPLLFSASYRYTGVPDRFTGSGSGTDFTLTISNVQSEDLAEYFCQQYNSYPLTFGGGTKLEIKRTVAAPSVFIFPPSDEQLKSGTASVVCLLNNFYPREAKVQWKVDNALQSGNSQESVTEQDSKDSTYSLSSTLTLSKADYEKHKVYACEVTHQGLSSPVTKSFNRGEC
notes: Mouse 225.28s variable regions on human epsilon and kappa constant regions; expressed in HEK cells; also called chimaeric IgE; chimaeric 225.28s IgE
